Measured values from patent US20260008856A1, “METHODS OF TREATING DISEASE USING ANTI-IL1RAP ANTIBODIES AND ANTIBODY DRUG CONJUGATES” (Bluefin Biomedicine, Inc., priority 2022, published 2026).

Experiments:
MOLT3 = assay: Flow cytometry binding to endogenous cell line MOLT3; type: cell-based; parameters: key: (−): No binding; (+): Weak binding; (++): Moderate binding; (+++): Strong binding; conditions: primary antibody 1 ug/ml
Procedure: (§1) Staining for flow cytometry was performed in 1× cold PBS with 0.5% BSA. Primary antibodies (1 ug/ml) were incubated with live cells on ice for 30 minutes, after a brief wash, cells were incubated with Alexa Fluro® 488-conjugated anti-human IgG secondary antibody @1:1000 (709-546-149, Jackson ImmunoResearch). Acquisition of the data was performed on a MACSQuant® Flow Cytometers (Miltenyi Biotec) and analyzed with FlowJo software.

EOL-1 = assay: Flow cytometry binding to endogenous cell line EOL-1; type: cell-based, human; parameters: key to binding to EOL-1 by flow cytometry: (−): No binding; (+): Weak binding; (++): Moderate binding; (+++): Strong binding; conditions: primary antibody 1 ug/ml
Procedure: as §1
(§2) Over 1,000 hits were identified that bind strongly to CHO-human IL1RAP, but not parental CHO cells. 68 clones were selected for molecular cloning. Based on unique CDR3 sequences from the heavy chain variable domain, 35 antibodies from 13 families were confirmed by binding in IL1RAP positive cell lines EOL1 and Karpas 299 (see Table 8) by flow cytometry (MACSQuant® www.miltenybiotec.com).

Karpas 299 = assay: Flow cytometry binding to endogenous cell line Karpas 299; type: cell-based, human; parameters: key to binding to Karpas 299 by flow cytometry: (−): No binding; (+): Weak binding; (++): Moderate binding; (+++): Strong binding; conditions: primary antibody 1 ug/ml
Procedure: as §1, §2

recombinant human IL1RAP = molecular target: T1, recombinant human IL1RAP (Homo sapiens, UniProt Q9NPH3); assay: Binding competition binning on Octet; conditions: Protein A biosensors
T1 construct: MBP-IL1RAP(S21-T367)-; 8xHis (C); made in house; host or cells: CHO (ExpiCHO transient expression)
Procedure: Binding Competition binning: Binding competition among different antibodies was determined using a real-time, interferometry assay on an Octet Red™ instrument with Protein A-conjugated biosensors. To assess whether two antibodies competed for binding to a recombinant IL1RAP protein, the assay was performed as follows. Protein A biosensors were first submerged into wells containing 10 ug/mL of individual monoclonal antibodies for 5 minutes. Following the capture step, the biosensors were dipped briefly (15 seconds) into buffer and then any unoccupied sites on the biosensor were saturated by submerging them for 5 minutes into wells containing 100 ug/mL of an irrelevant monoclonal antibody. The Octet™ biosensors were then dipped briefly (15 seconds) in buffer before immersion for 1 minute into wells containing recombinant IL1RAP. The biosensors were dipped briefly (15 seconds) in buffer before immersion for 1 minute into wells containing a second recombinant antibody.
For the control case where the second antibody was the same as the first, there was no increase in signal, because there was no additional binding to the recombinant target.
For the control case where buffer was used instead of the first antibody, no recombinant target bound the non-quenching antibody on the biosensor and no second antibody bound the biosensor.
Selected antibodies were evaluated in pairs for their ability to simultaneously bind recombinant human IL1RAP. The analysis was performed by Octet™ loaded with Protein A Biosensors. A total of five different bins were determined as follows.

| competition for binding, bin (1) (recombinant human IL1RAP) | competition for binding, bin (2) (recombinant human IL1RAP) | Molecule | binding to MOLT3 by flow cytometry (MOLT3) | binding to EOL-1 by flow cytometry (EOL-1) | binding to Karpas 299 by flow cytometry (Karpas 299) |
| --- | --- | --- | --- | --- | --- |
| – | – | 34H8_21B4: human anti-IL1RAP antibody, VH SEQ ID NO: 185, VL SEQ ID NO: 189 (antibody, V domains shown) VH: QVQLQESGPGLVKPSETLSLTCAVSGYSASGLYYWAWIRQPPGKGLEWIGNIYHSGRTYYNPSLESRVSISLDTSKHQVSLKLKSVTYADTAVYFCARDRFDGFDIWGQGTMVTVSS VL: EIVMTQSPATLSVSPGERATLSCRASQTINNILAWYQQKPGQAPRLLIYGASTRATGIPARFSGSGSGTEFTLTISSLQSEDFAVYYCQQYNNWPLTFGGGTKLEIK | (+) | (+++) | – |
| – | – | 36A12_21C1: human anti-IL1RAP antibody, VH SEQ ID NO: 144, VL SEQ ID NO: 147 (antibody, V domains shown) VH: EVQLVESGGGLVQPGGSLRLSCAASGFTLSFYWMTWVRQAPGKGLEWVANIKQDGNEKNYVDSVKGRFTISKDNAKKSVFLQMNSLRAEDTAVYYCAREGYFGSGYFDYWGQGTLVTVSS VL: DIQMTQSPSTLSASVGDRVTITCRASQSINSWLAWYQQKPGKAPKLLIYKASTLESGVPSRFSGSGSGTEFTLTISSLQPDDFAPYYCQHYNSYPHTFGQGTKVEIK | (+) | (+++) | (+++) |
| – | – | 31F9_21A1: human anti-IL1RAP antibody, VH SEQ ID NO: 118, VL SEQ ID NO: 120 (antibody, V domains shown) VH: QVQLVESGGGMVQPGRSLRLSCTASGFTFSSHGMHWVRQAPGKGLEWVAVIWFDGSNEYYVDSVKGRFTISRDNSKNTLYLQMNSLRAEDTAVYYCARENVYGSGWFFDYWGQGTLVTVSS VL: EIVMTQSPATLSVSPGERASLSCRASQSVGSNLAWYQQKPGQAPRLLIFGASTRATGIPARFSGSRSGTEFTLTISSLQSEDFALYYCQQYNNWPPWTFGQGTKVEIK | (+) | (+++) | – |
| – | – | 35D11_22A1: human anti-IL1RAP antibody, VH SEQ ID NO: 127, VL SEQ ID NO: 128 (antibody, V domains shown) VH: QLQLVESGGGVVQPGRSLRLSCAASGFTFSSYGMHWVRQAPGKGLEWVAVIWYDGSSEYYADSVKGRFTISRDNSKNTLFLQMNSLRADDTAVYYCARENVYGSGWFFDYWGQGTLVTVSS VL: EIVMTQSPATLSVSPGERASLSCRASQSVGSNLAWYQQKPGQAPRLLIFGASTRATGIPARFSGSRSGTEFTLTISSLQSEDFALYYCQQYDNWPPWTFGQGTKLEIK | (+) | (+++) | – |
| – | – | 32D4_21D6: human anti-IL1RAP antibody, VH SEQ ID NO: 121, VL SEQ ID NO: 122 (antibody, V domains shown) VH: QLQLVESGGGVVQPGRSLRLSCAASGFTFSSYGMHWVRQAPGKGLEWVAVIWYDGSSEYYADSVKGRFTISRDNSKNTLYLQMNSLRAEDTAVYYCARENVYGSGWFFDYWGQGTLVTVSS VL: EIVMTQSPATLSVSPGERASLSCRASQSVGSNLAWYQQKPGQAPRLLIFGASTRATGIPARFSGSRSGTEFTLTISSLQSEDFALYYCQQYNNWPPWTFGQGTKVEIK | (+) | (+++) | – |
| – | – | 33E9_21A6: human anti-IL1RAP antibody, VH SEQ ID NO: 125, VL SEQ ID NO: 126 (antibody, V domains shown) VH: QLQLVESGGGVVQFGRSLRLSCAASGFTFSSHGMHWVRQAPGKGLEWVAVIWYDGSSEYYADSVKGRFTISRDNSKNTLYLQMNSLRAEDTAVYYCARENVYGSGWFFDYWGQGTLVTVSS VL: EIVMTQSPATLSVSPGERASLSCRASQSVGSNLAWYQQKPGQAPRLLIFGASTRATGIPARFSGSRSGTEFTLTISSLQSEDFALYYCQQYNNWPPWTFGQGTKLEIK | (+) | (+++) | – |
| – | – | 32F9_21A5: human anti-IL1RAP antibody, VH SEQ ID NO: 123, VL SEQ ID NO: 124 (antibody, V domains shown) VH: QLQLVESGGGVVQPGRSLRLSCAASGFTFSSHGMHWVRQAPGKGLEWVAVIWYDGSSEYYADSVKGRFTISRDNSKNTLYLQMNSLRAEDTAVYYCARENVYGSGWFFDYWGQGSLVTVSS VL: EIVMTQSPATLSVSPGERASLSCRASQSVGSNLAWYQQKPGQAPRLLIFGASTRATGIPARFSGSRSGTEFTLTISSLQSEDFALYYCQQYNNWPPWTFGQGTKLEIK | (+) | (+++) | – |
| – | – | 34D1_21B3: human anti-IL1RAP antibody, VH SEQ ID NO: 136, VL SEQ ID NO: 137 (antibody, V domains shown) VH: QGQLVESGGGVVQPGRSLRLSCAASGFTFSSYTLHWVRQAPGKGLEWVAVIWYDGSNKYYVDSVKGRFTISRDNSKNTLYLQMNSLRAEDTAVYYCAREYGSGSYYNVYYGMDVWGQGTTVTVSS VL: DIVMTQSPLSLPVTPGEPASISCRSSQSLLHSNGYKYLDWYLQKAGQSPHLLIYLGSNRASGVPDRFSGSGSGTDFTLKISRVEAEDVGFYYCMQTLQIPLTFGGGTKLEIK | (+) | (+++) | (++) |
| competed with each other | – | 38E10_21C3: human anti-IL1RAP antibody, VH SEQ ID NO: 74, VL SEQ ID NO: 78 (antibody, V domains shown) VH: EVQLLESGGGLVQPGGSLRLSCAASGFTFSNYAMTWVRQAPGKGLEWVSSISISRAGTYYADSVKGRFTISRDNSKNTLNLQMNSLRAEDTAEYYCAREYYYGMDVWGQGTTVTVSS VL: EIVLTQSPATLSLSPGERATLSCRASQSVSSYLAWYQQKPGQTPRLLIYDASNRATGIPARFSGSGSGTDFTLTISSLETEDFAVYYCQQLINWPLTFGGGTKLEIK | (+) | (+++) | – |
| – | competed with each other | 10C8_15A1: human anti-IL1RAP antibody, VH SEQ ID NO: 9, VL SEQ ID NO: 13 (antibody, V domains shown) VH: QVQLVESGGGVVQPGRSLRISCAASGFTFRSYGMHWVRQAPGKGLEWVAIIWHDESYKYYVDSVKGRFTISRDNSKNTLYLQMNSLRAEDTAVYYCARGDYYGSGSYYDAFDIWGQGTMVTVSS VL: DIQMTQSPSSLSASVGDRVIITCRASQGISNYLAWFQQKPGKCPNLLIYAASTLRSGVPSRFSGSGSGTDFTLTISSLQPEDVATYYCQKYNSAPYTFGQGTKVEIK | (−) | (+++) | – |
| – | competed with each other | 32C12_21A4: human anti-IL1RAP antibody, VH SEQ ID NO: 32, VL SEQ ID NO: 36 (antibody, V domains shown) VH: QVQLVESGGGVVQPGRSLRLSCAASGFTFRNYGIHWVRQAPGKGLEWVAVIWYDGSNKFYADSVKGRFTISRDNSKNTLYLQMNSLRVEDTAVYYCAREEGIAVAPFDYWGQGTLVTVSS VL: DIQMTQSPSSLSASVGDRVAITCRANQSIASYLNWYQQKPGKAPKLLIYGASSLQNGVPSRFSGSGSRTDFTLTISSLQPEDFATYYCQQSYSTEITFGQGTRLEIK | (+) | (+++) | – |
| – | – | 41G4_15B6: human anti-IL1RAP antibody, VH SEQ ID NO: 116, VL SEQ ID NO: 36 (antibody, V domains shown) VH: QVQLVESGGGVVQPGRSLRLSCAASGFTFRNYGMHWVRQAPGKGLEWVAVIWYDGSNKFYADSVKGRFTISRDNSKNTLYLQMNSLRVEDTAVYYCAREEGIAVAPFDYWGQGTLVTVSS VL: DIQMTQSPSSLSASVGDRVAITCRANQSIASYLNWYQQKPGKAPKLLIYGASSLQNGVPSRFSGSGSRTDFTLTISSLQPEDFATYYCQQSYSTEITFGQGTRLEIK | – | (+++) | – |
